For experiment [1], the target named is T1, human PD-1 (Programmed Death 1), full-length, expressed on transiently transfected HEK293 cells (human, UniProt Q15116 25-288).
T1 construct: whole, on cells; also called CD279; PDCD1
Description: flow cytometry on HEK293 cells transiently transfected with human PD-1; FITC mouse anti-human IgG secondary. As to the method: (§1) HEK293 cells were transiently transfected by culturing at 5×10⁶/well with 5 μg human PD-1 DNA and 293 fectin (Invitrogen) overnight in 6 well plates. […] Cells were washed with PBS and incubated with an appropriate secondary antibody, either FITC Mouse anti Human IgG (05-4211 Zymed, 1:20 dilution) or rat anti Mouse IgG (04-6111 Zymed, 1:20 dilution) for 1 hr at 4° C. Flow cytometry analysis was performed on a FACSCalibur (Becton Dickinson).
In general terms: In flow cytometry, cells or beads pass a laser one at a time.

In experiment [2] the target is T1, human PD-1 (Programmed Death 1), …. Nature of the experiment: flow cytometry on HEK293 cells transiently transfected with human PD-1; rat anti-mouse IgG secondary. As to the method: as §1

This note sets out measurements from patent publication US20130095098A1 (UCB, published 2013).

T1 sequence (Q15116 25-288): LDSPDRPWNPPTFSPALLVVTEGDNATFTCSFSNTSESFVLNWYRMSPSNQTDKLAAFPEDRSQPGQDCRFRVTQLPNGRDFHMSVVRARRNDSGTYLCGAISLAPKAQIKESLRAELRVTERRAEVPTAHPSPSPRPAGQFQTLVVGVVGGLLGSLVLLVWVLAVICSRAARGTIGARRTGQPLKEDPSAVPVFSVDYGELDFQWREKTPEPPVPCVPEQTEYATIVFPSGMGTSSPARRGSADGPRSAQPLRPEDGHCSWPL

B1: 948.g1 (948 humanised graft; gL1 light chain, g1 heavy chain, human gamma-4 S241P / human kappa) (antibody, human IgG4 S228P, kappa, V domains shown)
VH: EVQLQESGPGLVKPSQTLSLTCTVTGYSITSDYAWNWIRQPPGKKLEWMGYINYSGSTSYNPSLKSRVTISRDTSKNQFSLKLSSVTAADTAVYYCARWIGSSAWYFDVWGQGTLVTVSS
VL: DVLMTQTPLSLSVTPGQPASISCRSGQNIVHSNGNTYLEWYLQKPGQSPKLLIYKVSNRFFGVPDRISGSGSGTDFTLKISRVEAEDVGVYFCFQGSHVPFTFGQGTKLEIKR
For the molecule B1, the binding result in experiment [1] was “binds”.

B2: antibody CA051-00948 (948 murine parental; cloned recombinant antibody derived from hybridoma Clone 10) (antibody, IgG1, V domains shown)
VH: DVQLQESGPGLVKPSQSLSLTCTVTGYSITSDYAWNWIRQFPGNKLEWMGYINYSGSTSYNPSLKSRISITRDTSKNQFFLQLNSVTTEDTATYYCARWIGSSAWYFDVWGAGTTVTVS
VL: DVLMTQTPLSLPVSLGDQASISCRSGQNIVHSNGNTYLEWYLQKPGQSPKLLIYKVSNRFFGVPDRISGSGSGTDFTLKISRVEAEDLGVYFCFQGSHVPFTFGSGTKLEIK
notes: also called Ab948
As to B2, in experiment [2], the binding result is reported as “binds”.
